Data on one protein can be found in publication PMC9967328 (International Journal of Molecular Sciences, 2023).

A value given as a limit tells only on which side of the number the result lay.

Series [1] deals with the molecule itself. Put plainly: SEC; analytical SEC, 10 µM enzyme loaded on Superdex 200 Increase 10/300, 50 mM HEPES pH 8.0, 150 mM NaCl, 20 µM PLP, samples incubated at 25 °C for 20 min; oligomeric state from the elution volume; the limits of K_Dtet-dim are of the step tetramer to dimers. (SEC sorts molecules by how far they enter the pores of the column.)
Series [2] concerns the molecule itself. The description is as above. The source holds these as a separate data set.

B1: human ornithine aminotransferase R154L pathogenic variant (enzyme)
chain: TSVATKKTVQGPPTSDDIFEREYKYGAHNYHPLPVALERGKGIYLWDVEGRKYFDFLSSYSAVNQGHCHPKIVNALKSQVDKLTLTSRAFYNNVLGEYEEYITKLFNYHKVLPMNTGVEAGETACKLALKWGYTVKGIQKYKAKIVFAAGNFWGRTLSAISSSTDPTSYDGFGPFMPGFDIIPYNDLPALERALQDPNVAAFMVEPIQGEAGVVVPDPGYLMGVRELCTRHQVLFIADEIQTGLARTGRWLAVDYENVRPDIVLLGKALSGGLYPVSAVLCDDDIMLTIKPGEHGSTYGGNPLGCRVAIAALEVLEEENLAENADKLGIILRNELMKLPSDVVTAVRGKGLLNAIVIKETKDWDAWKVCLRLRDNGLLAKPTHGDIIRFAPPLVIKEDELRESIEIINKTILSF
modifications: PLP on Lys292 (internal aldimine)
As a reminder, the stoichiometry N is the number of molecules, sites or subunits per partner or assembly. Usually Kd stands for the concentration at which binding is half-saturated. As to B1, the “stoichiometry N” value in series [1] is 2. In addition, the dissociation constant (Kd) in series [2] was above 10 µM.
